From the DeepSol protein solubility set

Test: soluble on expression in E. coli; label from the status in PepcDB or PDB records

| Sequence | soluble on expression in E. coli |
| --- | --- |
| MKINTALGVAAGKSAHYLLSKMGRGSTYPGSLALKFDKDILDTIAKDYEIVVVTGTNGKTLTTALTVGILKEAFGQVVTNPSGANMITGIVSTFLTAKKSKSGKKIAVLEIDEASLPRITQYIKPSLFVFTNIFRDQMDRYGEIYTTYQMILDGAANAPQATILANGDSPLFNSKSVTNPVQFYGFNTDKHEPRLAHYNTEGILCPKCQAILTYRLNTYANLGDYTCPNCDFERPNLDYALTRLTHLTNTSSGFVIDGQQYNINVGGLYNIYNALAAVSVAEYFGVEPSQIKDGFDKSRAVFGRQETFTIGNKKCTLVLIKNPVGASQALDMIKLAPYPFSLSVLLNANYADGIDTSWIWDANFETILTMNIPEIFAGGVRHSEIARRLRVTGYDEKRIKQADKLQDIMTMIEQQETEHAYILATYTAMLEFREILANHNAIRKEMN | not soluble |
| MDWRHEAVCRDEDPELFFPVGNSGPALAQVAAAKVVCNRCPVTSQCLAWALETGQDAGVWGGMSEDERRALKRRKNRGRGRARATA | not soluble |
| MLISKVIKKQFAQETIENVHIAKGTAMFQGVRLTVRCFVIDGVLIDTGAKSMENEFTSFFQQQDIDQVVITHFHEDHTGCAAFLQRKMGLPIYMNELMIHYCQQKADYPLYRKVFWGKRDPFTAKPIGATFSSRSATWDVIPTPGHSIDHVAFLNRETGQLFSGDLYCQEKTKVILREENIPAIITSLQHVLTYDFGDVFCAHAGYLPNGREALQRKLDYLLELQGTIIDLYEKGTPPKQIQALLFPKKYPIVFFSGGEWDSLHIIRSVIQEYETKQAG | not soluble |
| MAGDPNSMKRKPAVAGLFYPSRRDELIEQIRMCFLDKRIGPGKLPGPVETKLQNPIGLVSPHAGYIYSGPVAAWGFLEAVKFGEPSVVVIIGPNHTGLGRPVGVWPEGEWETPLGTVPVNERAVEIVLSNSRYAEEDFMSHIREHSIEVQIPFLQFVFGEVSIVPICLMDQSPAVAEDLASALAKLVAEFPGVLIIASTDLNHYEDQRTTLRKDSYIIEAIEGMDPSLLYEYLVREDISMCGYGGVATLLNMDFENVRILKHATSGDVSGDTLEVVGYLSAILFLEHHHHHH | not soluble |
| MLSTEDFDFDLPEELIAQTPLKDRASSRLLVVNKETGDMEDKHFHDILDELQPGDALVMNNTRVLPARLYGEKPETGGHLEVLLLTNTEGDTWETLIKPAKRAKVGTEIQFGDGRLKAVVKEELEHGGRIIEFKYDGIFLEILESLGEMPLPPYIKERLDDPDRYQTVYAEENGSAAAPTAGLHFTKELLEEIKAKGVHLVYLTLHVGLGTFRPVSVDNIEEHHMHSEFYRLTEEAAKQLNEVRQAGGRIVAVGTTSIRTLETIGTKFNGEIQADSGWTDIFITPGYQFKVVEAFSTNFHLPKSTLVMLVSAFAGKDLTLAAYQHAIEEKYRFFSFGDAMFIK | not soluble |
| MGSSHHHHHHGKTIFVIVPTNEEQVAFLEALAKQDELNFDWQNPPTEPGQPVVILIPSDMVEWFLEMLKAKGIPFTVYVEEGGSENLYFQGGGGGGRRLFLLLAWQPSFAKHLSELEPVPQRAPVEKRRRQHIPLSLQAREELSRKSNELQYHVVTQDWFGQRVDDFVTQHHPEWDYETVKRLVQQGHIYRYRKNGKKRYTRLTDRLEFDELVVVPTASFWERQLAPPSGVELQSSSTSQQQERRQKFHLSAKTREMAQEMVLFKNEHVIVINKPSGVPIMPTHDPLAMNITDLLPAWRYTNTQTPVICHNLDTETSGCVVLARSANTHRMLGRMFVKRVVPNSVYWGFAVGKPPVNFGRIRMHFEVQKGQGGDVIVARPTPTADSKVGIAEFVVNASALEFGSFISFYPLTTRRHQERIMAAHALRAPLLGDAKYGGESAFPHSLSLFWDPARKDVPLHLHHRKIQLPYKNGAGEFVCVTAPLPPHMEKTFKRLGWPVDADDPLIPG | not soluble |
| MANQKKDSLSTLFSEEVHGPFVTFLFNTHVAHQNVEKDSLVLKNFAKAAKTRFEKKFPEEKWSVFQEKIDALLADASFWRNGTASVSIILSPENTFVQRLDVPVDDQYYVDTIPYLLGLVKDKQFNYHYYLLALNRDSMKLYKVDHTTVTPVELPKDAPTDVVTALGDELTGGNLNFSTQGSSNGSKEGVAYHSINTKDKEVEIDWVNYYQAVDTFLKDQLDNPEKLPLYLYALPENQTLFKKIAKNPYYDCSISVAASPAQATIQDIRSASEKIAAELTEKETASYNKLLDRKFLDQFTDISPAAADGKISHLFIATSLFVTENNEMSSEEYDRRKLLNTIAYQVIQNGGQVFVLDQKAAPDEKSLAAILRY | not soluble |
| MSMPKCEICNDDYSSEDGDHSPRNLKCSHTLCEGCIKKMLGNSKIVCPFCREPTDMPGNKMESLHKNFALIQAIQLFAKTTKITEVEEPMLEKCKHHPDYLVETVCVEEDCSESGKYMCRKCVSTLSHLHHTKKSLIAEMEKSRELLQGRINRLNKTIGEIDQDVRKLRMSQIAFREGGNNYQQKANEITTFYSRIREMVNEREKEALVKLKEVAKSILDENDSALPPLLRSHQKLTEYVRKATEAKKRNNAIACITAAEDLLNKTKDCCDEEYYTIESQDINVCIKPIDIPVATITRK | not soluble |
| MGAFLDKPKMEKHNAQGQGNGLRYGLSSMQGWRVEMEDAHTAVIGLPSGLESWSFFAVYDGHAGSQVAKYCCEHLLDHITNNQDFKGSAGAPSVENVKNGIRTGFLEIDEHMRVMSEKKHGADRSGSTAVGVLISPQHTYFINCGDSRGLLCRNRKVHFFTQDHKPSNPLEKERIQNAGGSVMIQRVNGSLAVSRALGDFDYKCVHGKGPTEQLVSPEPEVHDIERSEEDDQFIILACDGIWDVMGNEELCDFVRSRLEVTDDLEKVCNEVVDTCLYKGSRDNMSVILICFPNAPKVSPEAVKKEAELDKYLECRVEEIIKKQGEGVPDLVHVMRTLASENIPSLPPGGELASKRNVIEAVYNRLNPYKNDDTDSTSTDDMWLEHHHHHH | soluble |
| MSNSSKDADSNLKSTVKPRYLILGSGSIGFALAKELRESNKLVIIVDKDEAKIETLREEGFEAILGDISDPELVNNIDLKNVVAILFLSSNNEANRKGIENFKKVVNPDIQIFSRASDIINKEKMEDLGSDYVFMPSKLVASSLSRSLERAESVHRGNRLARWLKGIRDKKLAIVIHDNPDPDAISSGLALKEIAKSLGVEASILYHGRIGHQENKAFVNLLGIDLGKMEEHDLKDFDEIALIDCSIPGVNNMVPPNSYVGIVIDHHPPGETEIKAEYIDIRPNFGATATIMTKYLQQLNINISKTLATALLYGIRTDTQDFKRKTDPADLSAASYLYPLSNHGILDQLEQPSMAIETLEVLGEAIRNRQVLGSYLLSNVGNIRDRDTLPQAADYLLSLEGISTTVVFGVSEDRIYISGRSTDIRVNLGEIMRQAFGEDAGGHANAAGAQIPLGVFSATKDRQTLLRLVNEAVVKRFLSAVGVESTGE | soluble |
| MGSNPPASPLQDNLVIALHSYEPSHDGDLGFEKGEQLRILEQSGEWWKAQSLTTGQEGFIPFNFVAKANSLEPEPWFFKNLSRKDAERQLLAPGNTHGSFLIRESESTAGSFSLSVRDFDQNQGEVVKHYKIRNLDNGGFYISPRITFPGLHELVRHYTNASDGLCTRLSRPCQT | soluble |
| GPGSMSTSKEAADQSRKFGFKESREQYQQRKRQEKQLKWTERLSKEDLGKLRIELDSLKRARFLAPQQNERKCLVHRMIRDLEAAENKEPKEETPVVATMPSALDSDSDDDIFSGKGTLTNDEHKRLFIPRSVRKKPEEKKCEKTAQQLAGEAERELLAAVHDDDDLDSFLDSLR | soluble |
| MGSDKIHHHHHHMLTKTIIGLDVGRSAVKVVAFANGLYYRLTFPSLVSPAFPINDEGTAARAELETVEVLGKRYFTGDTARLQGGVNMSVGLSHDWTNGPEYLALVASTMKRLAALGVPGLDSPYIVLGTPASLFGRQKEALAQRTQAVVAAEMKVLPQPMGAYCNFFMDARGVPIKDRQKRPDGKNRSWAVVEVGHYTTDFLLMREGNYIERAAVSCEGVHFAAENLVRILAAKDIQATPLTAEEALRTGVIVDFGERRIEAQVAEAVDHVVQKIMTMADSVLSNDVRSLDGVLLAGGGAPILAAGLQKKWPHTVLLENPRMAVADGFCRYGVGQMLRRAMAAEKATA | not soluble |
| MRRAAIFFFYDERGQVDDYIFYLLEKLRPFVETIIFVSNGEISQSSEASLRSTVDETIIRENTGFDVGAYRDGLEFIGYDKLGDYDEILLLNHTFYGPVFPFSEMFSEMERRACDFWGISDHKEVSPNPFTGAGVLPRHLNSHFIAVRKAMLESIAFRNYWERMPKITDYAESVLLHESRFTGFFENLGYKSETYLDSDKYNSAYPVMIDVDQIYNDRSPILKRRLFFNDPTFLDKNAVDLPRALRVLKETSDYDLNLIWRNVLRSSDLRTLNTNAALMSVLPDKRIKGDGAAADYGKIAVCAHIYYTDMLDEILGLTGNIPVPYDFIATTNTPEKKAEIETALANRPGVKNVIVRVVEQNRGRDMSSLFISLRDLLVDDRYDLVCRLHTKKSPQVQSSMGNLFKRHMVDNLLNSRGYVHNVLDMFHDNPSVGLAIPPIFHISYPTMGFSWFANKPKVEETARLLNINVKFDENTPVAAYGTMFWFRPRALRKMFEHKWKWEEFNAEPDHVDGGFAHALERLIAYAVQNAGYTTQHIMCAHQAEHNYTMLEFKLQKLASFMPSGDFPLQCHMVSEWRKGGYPLGSHVSATPAPMPTSVKHSLAELNLAVKSSLRFRAPILFRALRPIYRGTRAILKPNSRRSGGLEHHHHHH | soluble |
| MSQYVVCALYKFVELNNYQELREPLLALMEKHHIRGTLLLAGEGINGTVASDRAGIDTLLEWLNTEPRLTGTVYKESYSETQPFNRTKVKLKKEIVTLGVEGIDPRHVVGTYVKPQDWNDLIADPEVFVVDTRNDYEIEIGTFKGAVNPNTETFREFPDYVKENMDPAKHKKVAMFCTGGIRCEKSTAYMKEQGFEEVYHLEGGILKYLEEVPQEESMWEGDCYVFDGRVAVNHQLEKADYDLCNACRLPITDEDKQSELFEQGVSCPKCHGKHSEEQVERFREREKQVSLANQRGEQHVGGESAKQRAQRREAKLAKKAAQRKQALEHHHHHH | soluble |
| AGMSEAPRAETFVFLDLEATGLPSVEPEIAELSLFAVHRSSLENPEHDESGALVLPRVLDKLTLCMCPERPFTAKASEITGLSSEGLARCRKAGFDGAVVRTLQAFLSRQAGPICLVAHNGFDYDFPLLCAELRRLGARLPRDTVCLDTLPALRGLDRAHSHGTRARGRQGYSLGSLFHRYFRAEPSAAHSAEGDVHTLLLIFLHRAAELLAWADEQARGWAHIEPMYLPPDDPSLEA | soluble |
| MGSDKIHHHHHHMDAIARELRTSRSTVSRLLSAARETGLVQIQIRNPLDTGPELENMIRTQYRVDVHVVPVLDTLNEAETLDRVAMQAARTIGPLVDSNAIIGVAWGSTLSAVSRHLTRKITHDSVIVQLNGAGNMQTTGITYASDIMRRFGSAYGARVEQFPVPAFFDHAATKTAMWNERSVQRILELQSRMSIAIFGVGSVDADYPSHVYAGGYLDEDDLNILANSDVVGDVATVFFRGDGSSDGITLNERSTGPALAQLRQVRRRICVVSGASKINGLRGALAAGLATDLILDEATARRLVSFDGLS | not soluble |
| MGSDKIHHHHHHMKIVHTADWHLGKILNGKQLLEDQKYILTQFKQHMEKEQPDLIVIAGDLYDTSYPSKEAIGLLEETIEYLNIELKIPIIMISGNHDGRERLNYGSKWFENNQLYIRTQLENIDDPIELSGVQFFTLPFATVSEVQNYFKDKQIETYQQALNECLEQMSSSIDNNKVNILIGHLTIEGGKTSDSERPLTIGTVESVDMHSFRLFDYVMLGHLHHPFSINNSFIKYSGSILQYSFSEVNQSKGYRVLDIENNQLLNETFVPLKPLRELEVIEGDYEDIIQERIKVKNKNNYFHFKLTNVSHITDPMMKLKQIYPNILALSNVVFDHSENFSHVEIKKQDDQTIIENFYKNMTDQHLSQVQSDKIKHLLSFILDREG | not soluble |
